Laboratory results published in patent publication US20220064329A1 (Novo Nordisk, published 2022).

Experiments:
FVII(a) variant M391A = target: T1, FVII(a) variant M391A (human, UniProt P08709 61-466); assay: SPR, Biacore T200, 25 C; FVII(a) variant captured on anti-Gla Ab 4F6, mAb0842(OA) injected
T1 construct: hFVII alanine variant in cell culture supernatant
T1 sequence: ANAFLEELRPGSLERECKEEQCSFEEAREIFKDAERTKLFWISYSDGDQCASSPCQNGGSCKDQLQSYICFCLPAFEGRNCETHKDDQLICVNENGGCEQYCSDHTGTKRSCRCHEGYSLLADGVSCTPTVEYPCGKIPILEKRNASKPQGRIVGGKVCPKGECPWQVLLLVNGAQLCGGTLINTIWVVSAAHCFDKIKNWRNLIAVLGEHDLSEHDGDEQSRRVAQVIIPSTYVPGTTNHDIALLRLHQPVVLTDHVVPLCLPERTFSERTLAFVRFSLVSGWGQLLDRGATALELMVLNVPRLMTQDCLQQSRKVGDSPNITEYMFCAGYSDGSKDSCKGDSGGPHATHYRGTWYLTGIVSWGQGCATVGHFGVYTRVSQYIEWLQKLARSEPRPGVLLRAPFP

FVII(a) variant H115A = target: T2, FVII(a) variant H115A (human, UniProt P08709 61-466); assay: as above
T2 construct: hFVII alanine variant in cell culture supernatant
T2 sequence: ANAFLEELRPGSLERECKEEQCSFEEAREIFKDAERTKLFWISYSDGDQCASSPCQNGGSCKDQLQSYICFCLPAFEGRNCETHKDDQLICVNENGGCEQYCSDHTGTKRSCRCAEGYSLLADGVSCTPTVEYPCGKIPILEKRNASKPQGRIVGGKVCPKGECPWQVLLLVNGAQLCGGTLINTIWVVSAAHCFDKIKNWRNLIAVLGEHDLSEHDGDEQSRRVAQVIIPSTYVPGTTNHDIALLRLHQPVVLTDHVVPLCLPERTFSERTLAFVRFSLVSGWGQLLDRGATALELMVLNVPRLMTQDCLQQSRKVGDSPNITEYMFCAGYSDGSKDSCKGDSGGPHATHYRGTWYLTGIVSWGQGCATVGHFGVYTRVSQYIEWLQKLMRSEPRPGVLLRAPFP

FVII(a) WT = target: T3, FVII(a) WT (human, UniProt P08709 61-466); assay: SPR, Biacore T200, 25 C; FVII(a) captured on anti-Gla Ab 4F6, mAb0842(OA) injected
T3 construct: also called wild type human FVII(a)
T3 sequence: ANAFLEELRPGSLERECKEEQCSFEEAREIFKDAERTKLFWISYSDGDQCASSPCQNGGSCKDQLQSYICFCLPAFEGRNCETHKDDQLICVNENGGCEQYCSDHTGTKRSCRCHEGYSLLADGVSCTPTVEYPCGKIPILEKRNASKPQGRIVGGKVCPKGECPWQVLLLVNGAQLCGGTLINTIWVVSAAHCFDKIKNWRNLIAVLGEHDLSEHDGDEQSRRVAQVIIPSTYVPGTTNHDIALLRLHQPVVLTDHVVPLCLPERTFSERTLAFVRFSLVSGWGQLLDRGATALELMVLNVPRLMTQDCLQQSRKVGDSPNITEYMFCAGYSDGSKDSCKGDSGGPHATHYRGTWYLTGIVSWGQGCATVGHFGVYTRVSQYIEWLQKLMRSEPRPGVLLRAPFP
Protocol: The running buffer was prepared by diluting 10-fold the 10×HBS-P buffer (supplied by GE Healthcare) and supplemented with 1 mg/ml BSA and 5 mM CaCl2 to give 10 mM HEPES, 150 mM NaCl, 0.05% v/v Polysorbate 20, pH 7.4, 5 mM CaCl2, 1 mg/ml bovine serum albumin (BSA). […] Regeneration of the chip was achieved using 10 mM HEPES, 150 mM NaCl, 20 mM EDTA, 0.05 v/v Polysorbate 20, pH 7.4. Binding data were analysed according to a 1:1 Kinetic model and steady state analysis using BiaEvaluation 4.1 supplied by the manufacturer (Biacore AB, Uppsala, Sweden). Wherever possible, ka, kd and KD values from 1:1 kinetic fitting model are reported. […] An amino acid residue is considered a hot-spot residue if substitution of that amino acid residue with alanine results in an affinity reduction of ten (10) fold or more relative to the wild type.

- Kd (FVII(a) variant M391A): 0.25 nM
- Kd (FVII(a) variant H115A): 8.16 nM
- Kd (FVII(a) WT): 0.31 nM
B1: mAb0842(OA) (antibody, human IgG4 S228P, kappa)
heavy: QVQLQESGPGLVKPSQTLSLTCTVSGYSISSDSAWSWIRQPPGKGLEWIGYIQYSGSTNYNPSLKSRVTISRDTSKNQFSLKLSSVTAADTAVYYCARSVNYYGNSFAVGYWGQGTLVTVSSASTKGPSVFPLAPCSRSTSESTAALGCLVKDYFPEPVTVSWNSGALTSGVHTFPAVLQSSGLYSLSSVVTVPSSSLGTKTYTCNVDHKPSNTKVDKRVESKYGPPCPPCPAPEFLGGPSVFLFPPKPKDTLMISRTPEVTCVVVDVSQEDPEVQFNWYVDGVEVHNAKTKPREEQFNSTYRVVSVLTVLHQDWLNGKEYKCKVSNKGLPSSIEKTISKAKGQPREPQVYTLPPSQEEMTKNQVSLSCAVKGFYPSDIAVEWESNGQPENNYKTTPPVLDSDGSFFLVSRLTVDKSRWQEGNVFSCSVMHEALHNHYTQKSLSLSLGK
light: EIVLTQSPATLSLSPGERATLSCRASQGISDYLHWYQQKPGEAPRLLIKYTSQPATGIPARFSGSGSGTDFTLTISSLEPEDFAVYYCQNGHSFPLTFGQGTKLEIKRTVAAPSVFIFPPSDEQLKSGTASVVCLLNNFYPREAKVQWKVDNALQSGNSQESVTEQDSKDSTYSLSSTLTLSKADYEKHKVYACEVTHQGLSSPVTKSFNRGEC
chain: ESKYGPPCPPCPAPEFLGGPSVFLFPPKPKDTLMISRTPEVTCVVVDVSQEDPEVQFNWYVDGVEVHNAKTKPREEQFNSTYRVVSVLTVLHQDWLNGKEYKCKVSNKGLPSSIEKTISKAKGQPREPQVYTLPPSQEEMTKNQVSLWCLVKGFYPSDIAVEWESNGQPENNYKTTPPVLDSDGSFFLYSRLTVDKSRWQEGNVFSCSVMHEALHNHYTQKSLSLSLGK
notes: also called monovalent humanized 11F2 antibody; one-armed anti-FVII(a) antibody
